{"source": "patent US7422883B2", "about": "“Map kinase integrin-binding domain” (Inter-K Pty Limited, priority 2000, dated 2008)", "key": {"[1]": {"test_system": "MAP kinase activity in WiDr wild-type cells", "assay": "MAP kinase assay, serum-stimulated WiDr cells", "assay_type": "cell-based, human", "conditions": "inhibitors 40 μM added one hour before serum, serum 30 min", "experimental": "(§1) Cultures of WiDr and HT29 mock and antisense β6 transfectants were established by seeding 1×10^6 cells/5 ml of culture medium in 25 cm^2 tissue culture flasks. Cells were incubated at 37° C. in humidified CO2 for 24 hours before serum starvation in serum-free medium for the next 16 hours. Foetal calf serum was then added to a final concentration of 10% for 30 mins before MAP kinase assays were performed. […] The ability of cells to transfer phosphate from [γ^32P]-ATP to a synthetic peptide that contains specifically a p42/p44 MAP kinase phosphorylation site was measured as described in the manufacturer's instructions. [^32P]-labelled peptides were spotted onto PEI-cellulose paper, unbound radioactivity was washed with 75 mM phosphoric acid and bound [^32P]-labelled peptides were measured by liquid scintillation counting. Protein estimation was performed on each cell lysate used and enzyme activity calculated as described in the manufacturer's instructions. […]\n(§2) The effect of MEK (MAP kinase) inhibitors UO126 and PD98059 on MAP kinase activity in WiDr and HT29 wild-type cells was tested in the absence/presence of serum. […] Serum was then added for 30 min and MAP kinase activity assessed before and after addition of serum. […]"}, "[2]": {"test_system": "MAP kinase activity in HT29 wild-type cells", "assay": "MAP kinase assay, serum-stimulated HT29 cells", "assay_type": "cell-based, human", "conditions": "inhibitors 40 μM added one hour before serum, serum 30 min", "experimental": "as §1, §2"}, "[3]": {"test_system": "gelatinase B secretion by SW480 β6 transfectants", "assay": "Gelatinase B secretion, gelatin zymogram of tumour-conditioned medium", "assay_type": "cell-based, human", "conditions": "40 μM, serum-free, 48 hours, versus DMSO control", "experimental": "SW480 β6 transfectants were cultured under serum-free conditions for 48 hours in the absence/presence of the MEK inhibitor PD98059 (40 μM) or DMSO (vehicle control). Tumour-conditioned medium was assayed for gelatinase B by analysis of equal protein loads in a gelatin zymogram."}, "ERK2": {"molecular_target": "T1, ERK2 (Mus musculus, UniProt P63085)", "T1 construct": "GST (glutathione-S-transferase); made in house", "T1 sequence (P63085 whole entry, the tested form may be a part)": "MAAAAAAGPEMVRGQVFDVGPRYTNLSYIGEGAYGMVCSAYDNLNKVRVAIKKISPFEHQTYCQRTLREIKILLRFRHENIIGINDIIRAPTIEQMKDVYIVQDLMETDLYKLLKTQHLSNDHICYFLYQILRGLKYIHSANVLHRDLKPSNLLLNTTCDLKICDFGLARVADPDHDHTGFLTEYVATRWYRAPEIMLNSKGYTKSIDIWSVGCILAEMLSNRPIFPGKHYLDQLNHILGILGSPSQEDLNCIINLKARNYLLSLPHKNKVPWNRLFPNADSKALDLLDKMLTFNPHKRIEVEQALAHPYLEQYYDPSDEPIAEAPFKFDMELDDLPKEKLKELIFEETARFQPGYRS", "assay": "ELISA of ERK2 binding to biotinylated integrin cytoplasmic domain peptides", "conditions": "for binding of peptide to ERK2: ERK2 (1 μm), FIG. 35C; for binding of ERK2 to integrin subunit peptides: corrected for non-specific binding, FIG. 34; for binding of ERK2 to peptide: ERK2 cleaved from GST-ERK2 by thrombin, FIG. 23; for binding of non-phosphorylated ERK2 to peptide: over a range of concentrations of ERK2, FIG. 18", "experimental": "Peptide fragments corresponding to regions of the cytoplasmic tail domain of the β6 subunit were screened in an enzyme-linked immunosorbent assay (ELISA) for binding with ERK2. The 52 amino acid long β6 cytoplasmic tail is shown in FIG. 16 as are the amino acid sequences for the cytoplasmic domains of the β1 to β3 subunits. In particular, four synthetic peptides designated fragment 1 to fragment 4 were prepared and biotinylated at the N-terminal end of each, respectively (Auspep Pty Ltd, Melbourne Australia).\n(§3) Overlapping biotinylated fragments 1 to 4 were coated onto streptavidin coated polystyrene plates (Pierce, Rockford Ill. USA, Cat No. 15125) and the ELISA performed substantially according to manufacturers instructions. Briefly, wells are washed with 3×200 μl of wash buffer (TBS, 0.1% BSA, 0.05% Tween 20 or SuperBlock™ blocking buffer in TBS, Pierce, Prod. No. 37535) prior to addition of biotinylated peptides (100 μl) and incubation for 1 hr at room temperature to allow for capture of the peptides on the plate. Following another washing step, peptides were overlayed with GST-ERK, ERK (or JNK-1) alone at a volume of 100 μl per well, and the plates incubated for a further 1 hr at room temperature before removal of any unbound ERK by further washing.\nBinding of ERK to the peptides is detected using 100 μl anti-ERK1/2 mAb SC1647 (Santa Cruz) as the primary antibody at a dilution of 1:700 (isotype matched antibody IgG2b is used as a control). This is followed by another washing step and addition of 100 μl rabbit anti-mouse antibody (Biorad) conjugated to alkaline phosphatase at a concentration of 1:1000 for 30 minutes again at room temperature. A […] of detection reagent (alkaline phosphatase detection kit-Biorad) is then introduced into each well after a final washing step and allowed to react for 15-30 minutes at room temperature in the dark before absorbance is measured at 405 nm. All dilutions of peptides, MAP kinase and antibodies were performed using the wash buffer. GST-ERK is a fusion protein consisting of ERK coupled to glutathione-S-transferase and purified from host cells transfected with pGEX vector.\nTo further localise the binding domain on the cytoplasmic tail of the β6 subunit, progressively shorter peptides from the region of the β6 cytoplasmic tail corresponding to peptide fragment 2 were synthesised, biotinylated and the capacity to associate or otherwise bind to ERK2 assessed as described above. The binding of GST.ERK2 to a 15 mer test peptide (seq. 4) having the amino acid sequence RSKAKWQTGTNPLYR (SEQ ID NO: 7) and a 10 mer test peptide having the sequence RSKAKWQTGT (SEQ ID NO: 21) is shown in FIG. 20 compared to fragment 2 over a range of concentrations of the peptides. […] 4 peptide compared to fragment 2 was found. Binding of ERK2 to the seq. 3 peptide was substantially less than that observed for seq. 4.\nBinding of ERK2 to the seq.4 peptide (RSKAKWQTGTNPLYR) (SEQ ID NO: 7) was compared with peptides corresponding to regions of the cytoplasmic domain of integrin subunits β1, β2, β3 and β5. The amino acid sequences for those peptides is shown below:\nTo evaluate this, cell lysates containing equal protein loads were prepared from SW480 wild-type cells and SW480 cells transfected with either vector alone (mock transfectants), wild type β6 or the β6 deletion mutant Δ746-764 (lacking the sequence EAERSKAKWQTGTNPLYRG (SEQ ID NO: 26), Cone et al, 1994). The lysates were immunoprecipitated with mAbs R6G9 (anti-β6), P1F6 (anti-β5) or murine IgG control antibody (mlgG). […] To determine whether β5 can bind ERK2 in vitro, a 15-mer peptide fragment derived from the β5 cytoplasmic domain corresponding to the ERK binding domain on β6 was tested for its ability to bind ERK2 in an ELISA."}, "JNK-1": {"molecular_target": "T2, JNK-1 (Homo sapiens, UniProt P45983)", "T2 construct": "purchased Santa Cruz", "T2 sequence (P45983 whole entry, species assumed, the tested form may be a part)": "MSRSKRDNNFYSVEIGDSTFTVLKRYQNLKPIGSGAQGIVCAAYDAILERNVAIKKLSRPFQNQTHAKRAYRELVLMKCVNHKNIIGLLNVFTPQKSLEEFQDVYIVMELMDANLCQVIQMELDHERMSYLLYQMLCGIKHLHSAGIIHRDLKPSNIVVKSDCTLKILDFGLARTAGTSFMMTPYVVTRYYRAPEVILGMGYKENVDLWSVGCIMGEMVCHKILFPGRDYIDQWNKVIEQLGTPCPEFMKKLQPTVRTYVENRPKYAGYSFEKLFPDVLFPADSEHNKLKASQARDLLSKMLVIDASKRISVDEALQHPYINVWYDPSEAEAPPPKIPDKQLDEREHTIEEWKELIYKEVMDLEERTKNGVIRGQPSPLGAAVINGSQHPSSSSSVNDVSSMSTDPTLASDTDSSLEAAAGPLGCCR", "assay": "ELISA of JNK-1 binding to β6 cytoplasmic tail peptide", "conditions": "JNK-1 0.05-1.5 μm/100 μl; FIG. 24", "experimental": "as §3\nBriefly, 0.05-1.5 μm/100 μl of JNK-1 (Santa Cruz) was aliquoted into wells of a 96 well culture place containing increasing concentrations of the β6 cytoplasmic domain tail peptide used in Example 3. For comparison purposes, non-phosphorylated GST-ERK2 (0.05-1.5 μm/100 μl) was aliquoted into wells containing β6 cytoplasmic tail peptide or peptide fragments 1 or 2, respectively. Binding of JNK-1 was detected using mouse anti-JNK-1 mAb SC 474-G (Santa Cruz) and HRP-conjugated goat anti-mouse antibody."}, "β6-ERK2 interaction": {"test_system": "β6-ERK2 interaction", "assay": "ERK2 peptide competition ELISA for β6-ERK2 binding", "conditions": "increasing concentrations incubated with ERK2", "experimental": "To determine the β6-binding domain(s) of ERK2, a biotinylated β6 cytoplasmic tail peptide spanning the cytoplasmic tail of β6 was incubated with a soluble ERK2 peptide fragment in a total incubation volume of 20 μl phosphate buffered saline (PBS). The mixture was stood for 45 minutes at room temperature (RT). Soluble ERK2 in PBS was then added and the solution left for a further 30 minutes. Following incubation the reaction volume was made to 400 μl with carbonate buffer (0.015 M Na2CO3 and 0.035M NaHCO3 at pH 9.6) and 100 μl of this mixture added to each of 4 wells of a polystyrene ELISA plate (Nunc, Maxicorp). ERK2/peptides were allowed to attach to the plastic substrate for 18 to 20 hours at RT in the dark. After immobilisation the overlying buffer was flicked from the wells and excess solid surface blocked with casein (0.5% skim milk) in PBS for 60 minutes at RT. Wells were washed (×3) with was buffer (PBS plus 0.5% skim milk powder, 0.05% Tween-20) prior to incubation with the anti-β6 antibody SC-6632 (Santa Cruz) diluted 1:500 v/v in wash buffer (2 wells) or a control antibody (2 wells). Incubation with the primary antibody was carried out for 30 minutes at RT. […] Specific binding events were quantitatively determined using a colourimetric substrate system by measuring absorbency at […] (Bio-Rad, AP substrate kit). […]"}}, "note": "No end group written: not given here. *: point of attachment. Biotin = O=C1N[C@H]2[C@H](CS[C@H]2CCCCC(=O)*)N1", "data": [{"molecule": "COc1cccc(-c2cc(=O)c3ccccc3o2)c1N", "note": "[PD98059]", "values": [{"measurement": "serum-stimulated MAP kinase activity", "setting": "[1]", "result": "inhibitable"}, {"measurement": "serum-stimulated MAP kinase activity", "setting": "[2]", "result": "inhibitable"}, {"measurement": "gelatinase B secretion", "setting": "[3]", "result": "reduced gelatinase B secretion compared with controls"}]}, {"molecule": "KFEKEKMNAKWDTGENPIYK [β1, peptide of the β1 cytoplasmic domain]", "values": [{"measurement": "binding of peptide to ERK2", "setting": "ERK2", "result": "failed to bind ERK2"}]}, {"molecule": "RARAKWDTANNPLYK [β3, peptide of the β3 cytoplasmic domain]", "values": [{"measurement": "binding of ERK2 to integrin subunit peptides", "setting": "ERK2", "result": "Binding of ERK2 to the β5 and β3 peptides was also found"}]}, {"molecule": "RSKAK (also: biotinylated, site not given here) [5 mer peptide]", "values": [{"measurement": "binding of ERK2 to peptide", "setting": "ERK2", "result": "Negligible binding"}]}, {"molecule": "RSKAKNPLYR [10(4), 4 is omitted]", "values": [{"measurement": "binding of ERK2 to peptide", "setting": "ERK2", "result": "Comparable binding of ERK2 to seq. 4"}]}, {"molecule": "RSKAKWQTGT (also: biotinylated, site not given here) [seq. 3, 10 mer test peptide of the β6 cytoplasmic tail]", "values": [{"measurement": "binding of GST.ERK2 to peptide", "setting": "ERK2; over a range of concentrations of the peptides, compared to fragment 2, FIG. 20", "result": "substantially less than that observed for seq. 4"}]}, {"molecule": "RSKAKWQTGTNPLYRGSTST (Biotin-RSKAKWQTGTNPLYRGSTST) [fragment 2, biotinylated peptide of the β6 cytoplasmic tail]", "values": [{"measurement": "binding of non-phosphorylated GST.ERK2 to peptide", "setting": "ERK2; GST.ERK2 0.25 μg/100 μl, peptide 1 μg/100 μl, FIG. 17", "result": "significant binding"}, {"measurement": "binding of non-phosphorylated ERK2 to peptide", "setting": "ERK2", "result": "Significant binding"}]}, {"molecule": "RSRARYEMASNPLYR [β5, 15-mer peptide of the β5 cytoplasmic domain]", "values": [{"measurement": "binding of peptide to ERK2", "setting": "ERK2", "result": "Dose-dependant binding"}, {"measurement": "binding of ERK2 to integrin subunit peptides", "setting": "ERK2", "result": "Binding of ERK2 to the β5 and β3 peptides was also found"}]}, {"molecule": "β6 cytoplasmic tail peptide: peptide spanning the 52 amino acid long β6 cytoplasmic tail (HDRKEVAKFEAERSKAKWQTGTNPLYRGSTSTFKNVTYKHREKQKVDLSTDS)", "values": [{"measurement": "binding of non-phosphorylated ERK2 to peptide", "setting": "ERK2", "result": "Significant binding"}, {"measurement": "binding of JNK-1 to peptide", "setting": "JNK-1", "result": "Significant binding"}, {"measurement": "concentration at which maximal β6 bound to ERK was detected", "setting": "β6-ERK2 interaction", "result": 0.25, "unit": "µM"}]}]}
